Data from patent US20250339569A1 (3B PHARMACEUTICALS, published 2025).
Starred links: 1 amine or outer side, 2 acyl side, 3 side chain; linkers in the order of their positions; H or OH if unused. Positions of bridges follow the written chain, without caps; N, C: chain ends. Non-standard residues stand in square brackets, D forms with d. Primed or numbered codes have the meaning given here. *: point of attachment. Af3(DImAc) = 3-aminophenylalanine acylated on the ring amine with 2-{2,5-dioxo-octahydroimidazo[4,5-d]imidazolidin-1-yl}acetic acid, O=C(CN1C(=O)NC2NC(=O)NC21)Nc1cccc(C[C@H](N[*:1])C(=O)[*:2])c1; Af3(H-pGlu) = 3-aminophenylalanine with L-pyroglutamyl on the ring amine, O=C1CC[C@@H](C(=O)Nc2cccc(C[C@H](N[*:1])C(=O)[*:2])c2)N1; Af3(Im5) = 3-aminophenylalanine with 1H-imidazole-5-carbonyl on the ring amine, O=C(Nc1cccc(C[C@H](N[*:1])C(=O)[*:2])c1)c1cnc[nH]1; Af3(Oa5) = 3-aminophenylalanine with 1,3-oxazole-5-carbonyl on the ring amine, O=C(Nc1cccc(C[C@H](N[*:1])C(=O)[*:2])c1)c1cnco1; Af3(H2N-Succinyl) = 3-aminophenylalanine with succinamoyl on the ring amine, NC(=O)CCC(=O)Nc1cccc(C[C@H](N[*:1])C(=O)[*:2])c1; Aph(Cp) = 4-aminophenylalanine with cyclopentanecarbonyl on the ring amine, O=C(Nc1ccc(C[C@H](N[*:1])C(=O)[*:2])cc1)C1CCCC1; DOTA(In) = O=C1CN2CCN3CCN(CC(=O)*)CCN(CC2)CC(=O)[O][In]([O]1)[O]C(=O)C3; APAc″ = 2-(4-(amino)piperidin-1-yl)acetic acid, NC1CCN(CC(=O)*)CC1; DOTA = O=C(O)CN1CCN(CC(=O)O)CCN(CC(=O)*)CCN(CC(=O)O)CC1; NGly(3-aminopropyl) = O=C(CN(CCCN[*:3])[*:1])[*:2]; Phe(4-tBu) = CC(C)(C)c1ccc(C[C@H](N)C(=O)O)cc1; Pyridine(2,6-diCH2) = c1cc(C[*:1])nc(C[*:2])c1; mXylylene = c1cc(C[*:1])cc(C[*:2])c1; Orn(Me2) = CN(C)CCC[C@H](N)C(=O)O; αMeL = CC(C)C[C@](C)(N)C(=O)O; 4Amb = NCc1ccc(C(=O)O)cc1; AGLU′ = not defined here; Ac6c = NC1(C(=O)O)CCCCC1; Orn = NCCC[C@H](N)C(=O)O; APAc = not defined here; Dab = NCC[C@H](N)C(=O)O; Dap = NC[C@H](N)C(=O)O; Bn = c1ccc(C*)cc1

B1: 3BP-3961 (peptide)
peptide: Ac-VYCE[dP]KW[Ac6c]EWSC-NH2
modifications: linker 3-12 via mXylylene; lactam 6-9
SMILES: CC(=O)N[C@H](C(=O)N[C@@H](Cc1ccc(O)cc1)C(=O)N[C@H]1CSCc2cccc(c2)CSC[C@@H](C(N)=O)NC(=O)[C@H](CO)NC(=O)[C@H](Cc2c[nH]c3ccccc23)NC(=O)[C@@H]2CCC(=O)NCCCC[C@H](NC(=O)[C@H]3CCCN3C(=O)[C@H](CCC(=O)O)NC1=O)C(=O)N[C@@H](Cc1c[nH]c3ccccc13)C(=O)NC1(CCCCC1)C(=O)N2)C(C)C
B2: 3BP-3960 (peptide)
peptide: Ac-VYCE[dP][Dab]WLEWSC-NH2
modifications: linker 3-12 via mXylylene; lactam 6-9
SMILES: CC(=O)N[C@H](C(=O)N[C@@H](Cc1ccc(O)cc1)C(=O)N[C@H]1CSCc2cccc(c2)CSC[C@@H](C(N)=O)NC(=O)[C@H](CO)NC(=O)[C@H](Cc2c[nH]c3ccccc23)NC(=O)[C@@H]2CCC(=O)NCC[C@H](NC(=O)[C@H]3CCCN3C(=O)[C@H](CCC(=O)O)NC1=O)C(=O)N[C@@H](Cc1c[nH]c3ccccc13)C(=O)N[C@@H](CC(C)C)C(=O)N2)C(C)C
B3: 3BP-4261 (peptide)
peptide: {DOTA-4Amb}-DCE[dP]DWLTW[Dap]C-NH2
modifications: lactam 10-1; linker 2-11 via mXylylene
SMILES: CC(C)C[C@@H]1NC(=O)[C@H](Cc2c[nH]c3ccccc23)NC(=O)[C@H](CC(=O)O)NC(=O)[C@H]2CCCN2C(=O)[C@H](CCC(=O)O)NC(=O)[C@@H]2CSCc3cccc(c3)CSC[C@@H](C(N)=O)NC(=O)[C@H](CNC(=O)C[C@H](NC(=O)c3ccc(CNC(=O)CN4CCN(CC(=O)O)CCN(CC(=O)O)CCN(CC(=O)O)CC4)cc3)C(=O)N2)NC(=O)[C@H](Cc2c[nH]c3ccccc23)NC(=O)[C@H]([C@@H](C)O)NC1=O
B4: 3BP-3958 (peptide)
peptide: Ac-VYCE[dP][Orn]WLEWSC-NH2
modifications: linker 3-12 via mXylylene; lactam 6-9
SMILES: CC(=O)N[C@H](C(=O)N[C@@H](Cc1ccc(O)cc1)C(=O)N[C@H]1CSCc2cccc(c2)CSC[C@@H](C(N)=O)NC(=O)[C@H](CO)NC(=O)[C@H](Cc2c[nH]c3ccccc23)NC(=O)[C@@H]2CCC(=O)NCCC[C@H](NC(=O)[C@H]3CCCN3C(=O)[C@H](CCC(=O)O)NC1=O)C(=O)N[C@@H](Cc1c[nH]c3ccccc13)C(=O)N[C@@H](CC(C)C)C(=O)N2)C(C)C
B5: 3BP-3888 (peptide)
peptide: Ac-VYCK[dP]DWLEWSC-NH2
modifications: linker 3-12 via mXylylene; lactam 4-9
SMILES: CC(=O)N[C@H](C(=O)N[C@@H](Cc1ccc(O)cc1)C(=O)N[C@H]1CSCc2cccc(c2)CSC[C@@H](C(N)=O)NC(=O)[C@H](CO)NC(=O)[C@H](Cc2c[nH]c3ccccc23)NC(=O)[C@@H]2CCC(=O)NCCCC[C@H](NC1=O)C(=O)N1CCC[C@@H]1C(=O)N[C@@H](CC(=O)O)C(=O)N[C@@H](Cc1c[nH]c3ccccc13)C(=O)N[C@@H](CC(C)C)C(=O)N2)C(C)C
B6: 3BP-4052 (peptide)
peptide: {DOTA(In)-APAc}-VYCE[dP]KWLEWSC-NH2
modifications: linker 3-12 via mXylylene; lactam 6-9; reading uncertain; also: indium complexed by DOTA
B7: 3BP-4046 (peptide)
peptide: Ac-VYCE[dP]KWLDWSC-NH2
modifications: linker 3-12 via mXylylene; lactam 6-9
SMILES: CC(=O)N[C@H](C(=O)N[C@@H](Cc1ccc(O)cc1)C(=O)N[C@H]1CSCc2cccc(c2)CSC[C@@H](C(N)=O)NC(=O)[C@H](CO)NC(=O)[C@H](Cc2c[nH]c3ccccc23)NC(=O)[C@@H]2CC(=O)NCCCC[C@H](NC(=O)[C@H]3CCCN3C(=O)[C@H](CCC(=O)O)NC1=O)C(=O)N[C@@H](Cc1c[nH]c3ccccc13)C(=O)N[C@@H](CC(C)C)C(=O)N2)C(C)C
B8: 3BP-3901 (peptide)
peptide: Ac-VYCE[dP]EWLKWSC-NH2
modifications: linker 3-12 via mXylylene; lactam 6-9
SMILES: CC(=O)N[C@H](C(=O)N[C@@H](Cc1ccc(O)cc1)C(=O)N[C@H]1CSCc2cccc(c2)CSC[C@@H](C(N)=O)NC(=O)[C@H](CO)NC(=O)[C@H](Cc2c[nH]c3ccccc23)NC(=O)[C@@H]2CCCCNC(=O)CC[C@H](NC(=O)[C@H]3CCCN3C(=O)[C@H](CCC(=O)O)NC1=O)C(=O)N[C@@H](Cc1c[nH]c3ccccc13)C(=O)N[C@@H](CC(C)C)C(=O)N2)C(C)C

Experiments:
[1] = molecular target: human carbonic anhydrase 9 (CAIX) (human, UniProt Q16790 38-459); test: FACS competition on HT-29 cells, competitor tracer 3BP-2776; category B = pIC50 7.1-8.0
Method: CAIX-expressing human HT-29 colorectal cancer cells (DSMZ, RRID: CVCL_0320) were cultured in McCoys's 5A modified medium (Biochrom, #F1015) including 10% fetal calf serum (FCS), 2 mM L-glutamine, 100 U/ml penicillin and 100 μg/mL streptomycin. Cells were detached with Accutase (Biolegend, #423201) and washed in FACS buffer (PBS including 1% FCS). Cells were diluted in FACS buffer to a final concentration of 500.000 cells per ml. 200 μL of the cell suspension were transferred to a u-shaped non-binding 96-well plate (Greiner) and cells were washed in ice-cold FACS buffer.
When biotinylated compounds were used an additional incubation step with 1 μg/mL APC-Streptavidin (Miltenyi; #130-106-791) in 50 μL FACS buffer for 30 minutes on ice was performed.
Cells were washed twice with ice-cold FACS buffer and analyzed in an Attune NxT flow cytometer (Thermo Fisher). Median fluorescence intensities (MFI) of the APC/Cy5-channel were calculated by Attune NxT software.

[2] = molecular target: T1, Fc-fusion protein of human carbonic anhydrase IX (human, UniProt Q16790 38-414); test: SPR, captured hCAIX-Fc; pKD category A: >8.0
[3] = molecular target: T1, Fc-fusion protein of human carbonic …; test: SPR, captured hCAIX-Fc; t1/2 category C: 2.1-5.0 min
Method: Stock solutions of test compounds were prepared by dissolving each compound in DMSO. DMSO stock solution were diluted 1:1000 in Running Buffer without DMSO. […] SPR binding analyses were performed in Single Cycle Kinetic (SCK) mode at 25° C.
For each test compound, SPR raw data in the form of resonance units (RU) were plotted as sensorgrams using the Biacore™ T200 control software. The signal from the blank sensorgram was subtracted from that of the test compound sensorgram (blank corrected). The blank corrected sensorgram was corrected for baseline drift by subtracting the sensorgram of a SCK run without the test compound (running buffer only). […] Raw data and fit results were imported as text files in IDBS. The pKD value (negative decadic logarithm of dissociation constant) was calculated in the IDBS excel template.

| Binder | pIC50 [1] [pic50] | pKD [2] [pkd] | t1/2 (half-life of the complex, SPR) [3] [min] |
| --- | --- | --- | --- |
| B1 | 7.1 to 8 |  |  |
| B2 | 7.1 to 8 |  |  |
| B3 |  | > 8 | 2.1 to 5 |
| {DOTA-APAc}-VYCE[dP]DW[αMeL]TWSC-NH2 (linker 3-12 via mXylylene; reading uncertain) [3BP-4106] | 7.1 to 8 |  |  |
| {DOTA-Gab}-DCE[dP]DWLTW[Dap]C-NH2 (lactam 1-10; linker 2-11 via mXylylene) [3BP-4263] |  | > 8 | 2.1 to 5 |
| {DOTA-APAc″}-VYCE[dP]D[Af3(H2N-Succinyl)]LTWSC-NH2 (linker 3-12 via mXylylene) [3BP-4238] | 7.1 to 8 |  |  |
| {DOTA-APAc″}-VYCE[dP]D[Af3(Im5)]LTWSC-NH2 (linker 3-12 via mXylylene) [3BP-4240] | 7.1 to 8 |  |  |
| {DOTA-APAc″}-VYCE[dP]D[Af3(DImAc)]LTWSC-NH2 (linker 3-12 via mXylylene) [3BP-4341] |  | > 8 | 2.1 to 5 |
| {DOTA(In)}-YCE[dP]KWLEWSC-NH2 (linker 2-11 via mXylylene; lactam 5-8; also: indium complexed by DOTA) [3BP-4053] | 7.1 to 8 |  |  |
| B4 | 7.1 to 8 |  |  |
| {DOTA-APAc}-VYCE[dP][Orn(Me2)]WLTWSC-NH2 (linker 3-12 via mXylylene; reading uncertain) [3BP-4098] | 7.1 to 8 |  |  |
| {DOTA-APAc″}-VYCEG[NGly(3-aminopropyl)]WLEWSC-NH2 (linker 3-12 via mXylylene; lactam 6-9) [3BP-4252] | 7.1 to 8 |  |  |
| {DOTA-APAc″}-VYCE[dP]D[Aph(Cp)]LTWSC-NH2 (linker 3-12 via mXylylene) [3BP-4173] | 7.1 to 8 |  |  |
| {DOTA-APAc″}-VYCE[dP]D[Af3(Oa5)]LTWSC-NH2 (linker 3-12 via mXylylene) [3BP-4239] | 7.1 to 8 |  |  |
| {DOTA-APAc″}-VYCE[dP]D[Phe(4-tBu)]LTWSC-NH2 (linker 3-12 via mXylylene) [3BP-4160] | 7.1 to 8 |  |  |
| {DOTA-APAc″}-VYCE[dP]D[Af3(H-pGlu)]LTWSC-NH2 (linker 3-12 via mXylylene) [3BP-4241] | 7.1 to 8 |  |  |
| B5 | 7.1 to 8 |  |  |
| {DOTA-APAc}-VYCE[dP]E(AGLU′)WLTWSC-NH2 (linker 3-12 via mXylylene; reading uncertain) [3BP-4120] | 7.1 to 8 |  |  |
| B6 | 7.1 to 8 |  |  |
| B7 | 7.1 to 8 |  |  |
| {DOTA-APAc}-VYCE[dP]DY(Bn)LTWSC-NH2 (linker 3-12 via mXylylene; not fully specified; reading uncertain) [3BP-4137] | 7.1 to 8 |  |  |
| {DOTA-APAc}-VYCE[dP]KWLEWSC-NH2 (linker 3-12 via mXylylene; lactam 6-9; reading uncertain) [3BP-3933] | 7.1 to 8 |  |  |
| B8 | 7.1 to 8 |  |  |
| {DOTA-APAc}-VYCE[dK]SWLEWSC-NH2 (linker 3-12 via mXylylene; lactam 5-9; reading uncertain) [3BP-4115] | 7.1 to 8 |  |  |
| {DOTA-APAc″}-VYCE[dP]DWLTWSC-NH2 (linker 3-12 via Pyridine(2,6-diCH2)) [3BP-4140] | 7.1 to 8 |  |  |
